Source: publication PMC9549855

Target: T1, nucleocapsid protein (N) (vesicular stomatitis virus), P03521
T1 chain: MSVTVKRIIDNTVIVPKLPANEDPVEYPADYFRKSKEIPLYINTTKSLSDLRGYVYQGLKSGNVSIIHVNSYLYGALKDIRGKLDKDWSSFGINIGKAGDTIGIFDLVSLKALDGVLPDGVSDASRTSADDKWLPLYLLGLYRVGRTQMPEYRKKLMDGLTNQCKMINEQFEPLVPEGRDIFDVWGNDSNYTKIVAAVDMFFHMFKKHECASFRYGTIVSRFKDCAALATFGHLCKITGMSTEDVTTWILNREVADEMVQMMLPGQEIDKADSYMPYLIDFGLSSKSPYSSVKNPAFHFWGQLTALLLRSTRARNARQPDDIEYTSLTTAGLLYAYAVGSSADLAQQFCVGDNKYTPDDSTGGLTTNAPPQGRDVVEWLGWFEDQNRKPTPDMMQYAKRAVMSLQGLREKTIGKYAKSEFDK
Test: cryo-EM structure
Details: remark: other sources report otherwise

B1: matrix protein (M), P03519 1-229 (natural protein)
chain: MSSLKKILGLKGKGKKSKKLGIAPPPYEEDTSMEYAPSAPIDKSYFGVDEMDTYDPNQLRYEKFFFTVKMTVRSNRPFRTYSDVAAAVSHWDHMYIGMAGKRPFYKILAFLGSSNLKATPAVLADQGQPEYHTHCEGRAYLPHRMGKTPPMLNVPEHFRRPFNIGLYKGTIELTMTIYDDESLEAAPMIWDHFNSSKFSDFREKALMFGLIVEKKASGAWVLDSISHFK
  stoichiometry N: 2
